From PMC3386944 come the findings set out here.

The test deals with HER3 receptor (human (endogenous in AU565)) (UniProt P21860).
Sequence of UniProt P21860 (P21860 20-1342): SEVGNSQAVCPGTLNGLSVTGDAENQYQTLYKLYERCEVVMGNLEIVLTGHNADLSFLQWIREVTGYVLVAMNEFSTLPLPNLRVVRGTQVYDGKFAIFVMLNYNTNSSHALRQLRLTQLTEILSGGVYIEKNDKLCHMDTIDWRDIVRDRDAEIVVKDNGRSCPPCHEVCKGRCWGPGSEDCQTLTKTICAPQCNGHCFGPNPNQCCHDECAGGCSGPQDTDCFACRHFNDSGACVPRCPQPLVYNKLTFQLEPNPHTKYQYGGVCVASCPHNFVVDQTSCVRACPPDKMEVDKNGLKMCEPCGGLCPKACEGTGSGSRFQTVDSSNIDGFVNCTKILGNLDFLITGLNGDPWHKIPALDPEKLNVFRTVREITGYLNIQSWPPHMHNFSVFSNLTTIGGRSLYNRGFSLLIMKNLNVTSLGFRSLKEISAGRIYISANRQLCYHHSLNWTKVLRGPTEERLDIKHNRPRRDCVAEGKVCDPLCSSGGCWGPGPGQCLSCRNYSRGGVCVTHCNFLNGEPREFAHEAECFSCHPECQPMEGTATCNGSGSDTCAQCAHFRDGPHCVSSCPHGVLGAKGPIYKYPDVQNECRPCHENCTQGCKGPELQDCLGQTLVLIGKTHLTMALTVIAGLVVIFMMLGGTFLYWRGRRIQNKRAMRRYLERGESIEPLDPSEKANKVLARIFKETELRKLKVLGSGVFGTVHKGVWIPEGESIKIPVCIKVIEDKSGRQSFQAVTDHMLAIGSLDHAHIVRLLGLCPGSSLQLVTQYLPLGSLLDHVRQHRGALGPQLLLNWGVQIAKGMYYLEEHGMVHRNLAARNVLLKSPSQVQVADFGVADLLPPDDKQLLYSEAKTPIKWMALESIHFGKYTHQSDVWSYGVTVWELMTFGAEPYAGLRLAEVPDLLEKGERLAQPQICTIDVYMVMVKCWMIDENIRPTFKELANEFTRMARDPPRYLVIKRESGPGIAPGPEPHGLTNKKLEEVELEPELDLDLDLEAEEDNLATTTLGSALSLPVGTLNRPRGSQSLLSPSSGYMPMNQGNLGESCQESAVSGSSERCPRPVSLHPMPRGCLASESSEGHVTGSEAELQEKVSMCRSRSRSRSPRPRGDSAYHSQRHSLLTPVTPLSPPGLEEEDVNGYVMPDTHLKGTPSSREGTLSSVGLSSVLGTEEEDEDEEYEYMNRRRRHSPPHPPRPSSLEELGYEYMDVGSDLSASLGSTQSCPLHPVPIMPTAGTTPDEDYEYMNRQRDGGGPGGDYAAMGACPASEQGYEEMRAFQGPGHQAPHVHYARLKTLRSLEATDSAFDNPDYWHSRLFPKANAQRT

Consider “heregulin (HRG, NRG1-β1/HRG1-β1 ECD domain), biotinylated (ligand)”, for which the IC50 of Affibody molecule Z05416 (no letters) for inhibition of growth of MCF-7 cells induced by 40 pM HRG (EGF domain construct), 5 days, CCK-8 was 19 nM; the IC50 of Affibody molecule Z05416 (no letters) for inhibition of growth of SKBR-3 cells induced by 40 pM HRG (EGF domain construct), 5 days, CCK-8 turned out to be 73 nM; the IC50 of Affibody molecule Z05417 (no letters) for inhibition of growth of MCF-7 cells induced by 40 pM HRG (EGF domain construct), 5 days, CCK-8 came to 15 nM; the IC50 of Affibody molecule Z05417 (no letters) for inhibition of growth of SKBR-3 cells induced by 40 pM HRG (EGF domain construct), 5 days, CCK-8 stood at 65 nM.
